Results from the supplement of paper PMC6757056.
± gives the standard deviation of the averaged measurements.

B1: library; a variant is named by its letters at N, in order (parent)
chain: GCUGUCACCGGUGCUUGGUACGUUAUAUUCAGCCGGUCUGAUGAGUCUNNNNNNAGACGAAACAGC

How the values were obtained:
(6R,S)-folinic acid [1] = variants of: B1; assay: normalized RNA/DNA level without ligand (relative to sTRSVctl = 100) (log10 (% of sTRSVctl)); HEK293T overexpressing SLC46A1; higher = less ribozyme self-cleavage, higher mRNA level; conditions: without (6R,S)-folinic acid; ligand present: no
Procedure, shortened: (§1)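 Ribozyme switch library plasmids with mCherry reporters (eGFP in certain ligand experiments) went into HEK293T cells at 4 µg per 6-well well. Where ligand was used, it was applied 1 h before transfection, and total RNA was extracted with EDTA 72 h later for reverse transcription, amplification, barcoding and sequencing. RNA level is the RNA-to-DNA read ratio normalized to a spiked-in non-cleaving sequence or to the leading sequences, then scaled and log-transformed. Scaling was ×100 with log10, the leading set comprised 25 sequences, and the cutoff was ≥100 DNA reads.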

(6R,S)-folinic acid [2] = variants of: B1; assay: normalized RNA/DNA level with ligand (relative to sTRSVctl = 100) (log10 (% of sTRSVctl)); HEK293T overexpressing SLC46A1; ligand concentration (+) RNA-Seq: 6 mM; higher = less ribozyme self-cleavage, higher mRNA level; conditions: with (6R,S)-folinic acid; ligand present: yes
Procedure, shortened: as §1

| Variant | normalized RNA/DNA level without ligand (log10) ((6R,S)-folinic acid [1]) | normalized RNA/DNA level with ligand (log10) ((6R,S)-folinic acid [2]) |
| --- | --- | --- |
| ACGGUG | 1.924 ± 0.0096 | 2.003 ± 0.013 |
| ACGGUA | 1.9058 ± 0.0011 | 1.95 ± 0.029 |
| ACGGUC | 2.088 ± 0.0078 | 2.06 ± 0.036 |
| GCGUUA | 2.003 ± 0.0039 | 2.02 ± 0.036 |
| GCGUUC | 2.017 ± 0.0029 | 2.034 ± 0.02 |
| GCGUUG | 2.009 ± 0.0022 | 2.05 ± 0.041 |
| GCGUUU | 2.037 ± 0.017 | 2.04 ± 0.022 |
| ACGUGC | 2.026 ± 0.0053 | 2.02 ± 0.055 |
| ACGUGG | 1.954 ± 0.0043 | 2.05 ± 0.025 |
| ACGUGU | 2.06 ± 0.028 | 2.06 ± 0.024 |
| ACUCGC | 2.034 ± 0.012 | 2.01 ± 0.041 |
| ACUCGG | 1.979 ± 0.013 | 2.02 ± 0.024 |
| ACUCGA | 1.994 ± 0.019 | 2.03 ± 0.025 |
| ACUCGU | 2.028 ± 0.016 | 1.983 ± 0.016 |
| GCGUCA | 2.06 ± 0.025 | 2.08 ± 0.031 |
| GCGUCG | 2.042 ± 0.0035 | 2.07 ± 0.035 |
| GCGUCC | 2.01 ± 0.0034 | 1.997 ± 0.0077 |
| GCGUCU | 2.064 ± 0.0062 | 2.07 ± 0.034 |
| UCUAAU | 1.974 ± 0.0063 | 2.005 ± 0.0055 |

| Variant | normalized RNA/DNA level without ligand (log10) ((6R,S)-folinic acid [1]) | normalized RNA/DNA level with ligand (log10) ((6R,S)-folinic acid [2]) |
| --- | --- | --- |
| UCUAAG | 1.815 ± 0.014 | 2 ± 0.045 |
| UCUAAC | 2.013 ± 0.0071 | 2.031 ± 0.018 |
| CCUCCC | 2.095 ± 0.016 | 2.0404 ± 0.0018 |
| CCUCCG | 2.07 ± 0.029 | 2.049 ± 0.011 |
| CCUCCU | 2.06 ± 0.036 | 2.037 ± 0.0023 |
| GCUUAU | 1.942 ± 0.015 | 2.003 ± 0.006 |
| GCUUAG | 1.9687 ± 0.00031 | 2.015 ± 0.013 |
| CCGUCC | 2.06 ± 0.021 | 2.06 ± 0.039 |
| CCGUCG | 2.02 ± 0.034 | 2.021 ± 0.015 |
| CCGUCA | 2.04 ± 0.031 | 2.05 ± 0.038 |
| CCGUCU | 2.04 ± 0.0053 | 2.05 ± 0.061 |
| CCGUUG | 1.99 ± 0.024 | 2.04 ± 0.044 |
| CCGUUA | 2.005 ± 0.0026 | 1.97 ± 0.055 |
| CCGUUC | 2.048 ± 0.0038 | 2.03 ± 0.071 |
| CCGUUU | 2.037 ± 0.0047 | 2.013 ± 0.02 |
| ACUGUC | 2.08 ± 0.024 | 2.04 ± 0.059 |
| ACUGUU | 2 ± 0.02 | 2.01 ± 0.037 |
| ACUGUA | 1.9633 ± 7.1e-05 | 2.026 ± 0.014 |
| GCUAAG | 1.968 ± 0.003 | 2.024 ± 0.016 |

| Variant | normalized RNA/DNA level without ligand (log10) ((6R,S)-folinic acid [1]) | normalized RNA/DNA level with ligand (log10) ((6R,S)-folinic acid [2]) |
| --- | --- | --- |
| GCUAAC | 1.975 ± 0.015 | 2.015 ± 0.007 |
| GCUAAA | 1.992 ± 0.009 | 2.02 ± 0.028 |
| GCUAUC | 2.083 ± 0.0023 | 2.013 ± 0.019 |
| GCUAUG | 1.99 ± 0.022 | 2.02 ± 0.035 |
| GCUAUU | 2.054 ± 0.013 | 2.04 ± 0.041 |
| CCUGUU | 2.02 ± 0.021 | 2.015 ± 0.014 |
| CCUGUG | 2.0488 ± 0.00073 | 2.03 ± 0.038 |
| CCUGUA | 2.018 ± 0.012 | 2.04 ± 0.022 |
| CCUGUC | 2.022 ± 0.0031 | 2.01 ± 0.041 |
| GCUGUG | 2.03 ± 0.028 | 2.04 ± 0.055 |
| GCUGUA | 2.019 ± 0.018 | 2.04 ± 0.033 |
| GCUGUC | 2.0466 ± 0.00088 | 2.02 ± 0.026 |
| UCGUCU | 2.02 ± 0.035 | 2.04 ± 0.09 |
| UCGUCC | 2.064 ± 0.0091 | 2.0551 ± 0.00048 |
| UCGUCA | 2.045 ± 0.013 | 2.03 ± 0.045 |
| CCUUAC | 2.02 ± 0.027 | 2.056 ± 0.014 |
| CCUUAA | 2.01 ± 0.0061 | 2.003 ± 0.013 |
| CCUUAG | 1.934 ± 0.015 | 1.96 ± 0.046 |
| CCGGUG | 2.04 ± 0.04 | 2.051 ± 0.0038 |
